Reference: paper PMC6986764, “RNA binding protein FXR1-miR301a-3p axis contributes to p21WAF1 degradation in oral cancer”

Biological target: FXR1 (rFXR1) (human, UniProt P51114 1-621)
Test: EMSA; 1 ug E. coli tRNA, 1.5 mM EDTA; EMSA: 0.5 pmol 32P-miRNA in 20 ul, 20 mM Na-HEPES pH 7.0, 150 mM NaCl, 0.75 mM DTT, 1.5 mM EDTA, 10% glycerol, 1 ug E. coli tRNA, 37 C 30 min; 12% native PAGE
Details: protein: recombinant, His-tag (pET28a), thrombin-cleaved in final dialysis, single strand

Chain of FXR1 (rFXR1) (P51114 whole entry): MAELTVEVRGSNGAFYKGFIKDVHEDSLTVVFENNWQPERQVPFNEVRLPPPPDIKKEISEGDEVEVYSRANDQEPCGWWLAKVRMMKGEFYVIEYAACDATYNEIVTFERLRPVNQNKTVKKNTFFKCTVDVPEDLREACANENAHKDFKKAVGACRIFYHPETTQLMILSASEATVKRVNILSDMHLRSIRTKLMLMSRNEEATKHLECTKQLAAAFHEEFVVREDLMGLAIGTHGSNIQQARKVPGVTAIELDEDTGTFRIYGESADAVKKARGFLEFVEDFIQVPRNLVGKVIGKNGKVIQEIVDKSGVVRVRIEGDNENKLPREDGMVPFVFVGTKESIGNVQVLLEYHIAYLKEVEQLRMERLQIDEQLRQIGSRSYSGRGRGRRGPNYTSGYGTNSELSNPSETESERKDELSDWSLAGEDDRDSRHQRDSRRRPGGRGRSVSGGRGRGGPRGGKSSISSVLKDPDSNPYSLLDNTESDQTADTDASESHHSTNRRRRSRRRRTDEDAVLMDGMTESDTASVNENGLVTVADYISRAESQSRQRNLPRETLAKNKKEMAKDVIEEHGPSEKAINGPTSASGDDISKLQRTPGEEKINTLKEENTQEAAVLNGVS

Row | Binder | binding result (label: 32P) | binding result (label: 5'-32P)
1 | UUCCCUUUGUCAUCCUAUGCCU (ssRNA) [miR204-5p] | no binding | 
2 | CAGUGCAAUAGUAUUGUCAAAGC (ssRNA) [miR301a-3p] |  | binds
